The numbers were not newly measured in paper PMC10653114, which cites them from elsewhere.

One data set deals with Asp61 (UniProt position 435, STVTQDGSAVH). Particulars: 298 K; Conc. 0.10 (unit not given; K+/Cl–).
In the next data set the target is Asp10 (UniProt position 10, VEIFTDGSCLG). Put plainly: NMR (per the title of cited ref 95). As to conditions: 300 K; Conc. 0.10 (unit not given; Na+/Cl–).
The target of another data set is Asp108 (UniProt position 108, LWQRLDAALGQ). The data set is described as follows: NMR (per the title of cited ref 95). Particulars: 300 K; Conc. 0.10 (unit not given; Na+/Cl–).
The target of the next data set is Asp134 (UniProt position 134, ENERCDELARA). The data set is described as follows: NMR (per the title of cited ref 95). As to conditions: 300 K; Conc. 0.10 (unit not given; Na+/Cl–).
Another data set deals with Asp70 (UniProt position 70, VILSTDSQYVR). The data set is described as follows: NMR (per the title of cited ref 95). As to conditions: 300 K; Conc. 0.10 (unit not given; Na+/Cl–).
Another data set deals with Asp94 (UniProt position 94, GWKTADKKPVK). Put plainly: NMR (per the title of cited ref 95). As to conditions: 300 K; Conc. 0.10 (unit not given; Na+/Cl–).
In another data set the target is Glu119 (UniProt position 119, HQIKWEWVKGH). Put plainly: NMR (per the title of cited ref 95). Particulars: 300 K; Conc. 0.10 (unit not given; Na+/Cl–).
For a further data set, the target named is Glu129 (UniProt position 129, HAGHPENERCD). Put plainly: NMR (per the title of cited ref 95). Particulars: 300 K; Conc. 0.10 (unit not given; Na+/Cl–).
In the next data set the target is Glu131 (UniProt position 131, GHPENERCDEL). The data set is described as follows: NMR (per the title of cited ref 95). Particulars: 300 K; Conc. 0.10 (unit not given; Na+/Cl–).
Another data set concerns the target Glu135 (UniProt position 135, NERCDELARAA). The data set is described as follows: NMR (per the title of cited ref 95). As to conditions: 300 K; Conc. 0.10 (unit not given; Na+/Cl–).
Another data set concerns the target Glu147 (UniProt position 147, MNPTLEDTGYQ). The data set is described as follows: NMR (per the title of cited ref 95). As to conditions: 300 K; Conc. 0.10 (unit not given; Na+/Cl–).
For a further data set, the target named is Glu154 (UniProt position 154, TGYQVEV----). The data set is described as follows: NMR (per the title of cited ref 95). As to conditions: 300 K; Conc. 0.10 (unit not given; Na+/Cl–).
The next data set concerns the target Glu32 (UniProt position 32, RYRGREKTFSA). Put plainly: NMR (per the title of cited ref 95). Particulars: 300 K; Conc. 0.10 (unit not given; Na+/Cl–).
Another data set deals with Glu48 (UniProt position 48, TNNRMELMAAI). The data set is described as follows: NMR (per the title of cited ref 95). Particulars: 300 K; Conc. 0.10 (unit not given; Na+/Cl–).
The target in a further data set is Glu57 (UniProt position 57, AIVALEALKEH). Put plainly: NMR (per the title of cited ref 95). As to conditions: 300 K; Conc. 0.10 (unit not given; Na+/Cl–).
For data set [1], the target named is Glu6 (UniProt position 6, MLKQVEIFTDG). Put plainly: NMR (per the title of cited ref 95). As to conditions: 300 K; Conc. 0.10 (unit not given; Na+/Cl–).
Another data set has as its target Glu61 (UniProt position 61, LEALKEHCEVI). The data set is described as follows: NMR (per the title of cited ref 95). Particulars: 300 K; Conc. 0.10 (unit not given; Na+/Cl–).
The next data set concerns the target Glu64 (UniProt position 64, LKEHCEVILST). The data set is described as follows: NMR (per the title of cited ref 95). As to conditions: 300 K; Conc. 0.10 (unit not given; Na+/Cl–).
For the next data set, the target named is Asp16 (UniProt position 16, FQEALDAAGDK). As to conditions: 298 K; Conc. 0.00 (unit not given; Na+/Cl–).
In another data set the target is Asp20 (UniProt position 20, LDAAGDKLVVV). As to conditions: 298 K; Conc. 0.00 (unit not given; Na+/Cl–).
For another data set, the target named is Asp26 (UniProt position 26, KLVVVDFSATW). As to conditions: 298 K; Conc. 0.00 (unit not given; Na+/Cl–).
Another data set addresses Asp64 (UniProt position 64, VDDCQDVASEC). As to conditions: 298 K; Conc. 0.00 (unit not given; Na+/Cl–).
For a further data set, the target named is Glu103 (UniProt position 103, EATINELV---). Particulars: 298 K; Conc. 0.00 (unit not given; Na+/Cl–).
In another data set the target is Glu13 (UniProt position 13, KTAFQEALDAA). Particulars: 298 K; Conc. 0.00 (unit not given; Na+/Cl–).
The next data set concerns the target Glu47 (UniProt position 47, FHSLSEKYSNV). Particulars: 298 K; Conc. 0.00 (unit not given; Na+/Cl–).
In the next data set the target is Glu56 (UniProt position 56, NVIFLEVDVDD). As to conditions: 298 K; Conc. 0.00 (unit not given; Na+/Cl–).
Data set [2] deals with Glu6 (UniProt position 6, MVKQIESKTAF). Particulars: 298 K; Conc. 0.00 (unit not given; Na+/Cl–).
The target in the next data set is Glu68 (UniProt position 68, QDVASECEVKC). Particulars: 298 K; Conc. 0.00 (unit not given; Na+/Cl–).
For a further data set, the target named is Glu70 (UniProt position 70, VASECEVKCMP). As to conditions: 298 K; Conc. 0.00 (unit not given; Na+/Cl–).
The next data set addresses Glu88 (UniProt position 88, GQKVGEFSGAN). As to conditions: 298 K; Conc. 0.00 (unit not given; Na+/Cl–).
A further data set deals with Glu95 (UniProt position 95, SGANKEKLEAT). As to conditions: 298 K; Conc. 0.00 (unit not given; Na+/Cl–).
In another data set the target is Glu98 (UniProt position 98, NKEKLEATINE). As to conditions: 298 K; Conc. 0.00 (unit not given; Na+/Cl–).
A further data set concerns the target Asp27 (UniProt position 156, PLCGSDNKTYG). Particulars: 298 K; Conc. 0.015 (unit not given; K+/Cl–).
A further data set addresses Asp7 (UniProt position 136, AAVSVDCSEYP). Particulars: 298 K; Conc. 0.015 (unit not given; K+/Cl–).
The target in another data set is Lys13 (UniProt position 142, CSEYPKPACTL). Particulars: 298 K; Conc. 0.015 (unit not given; K+/Cl–).
Another data set addresses Lys29 (UniProt position 158, CGSDNKTYGNK). Particulars: 298 K; Conc. 0.015 (unit not given; K+/Cl–).
The next data set has as its target Lys34 (UniProt position 163, KTYGNKCNFCN). As to conditions: 298 K; Conc. 0.015 (unit not given; K+/Cl–).
The target in another data set is Lys55 (UniProt position 184, LSHFGKC----). Particulars: 298 K; Conc. 0.015 (unit not given; K+/Cl–).

A word on the pKa: it is the negative logarithm of the acid dissociation constant. As for “Highly charge-depleted protein (PDB 6QFS), S61D/T66H variant (Cellulomonas fimi (parent domain; not stated in the article); S61D;T66H (on the 6QFS charge-depleted background; background substitutions not stated))”, the pKa in the data set with Asp61 is on record as 4.10 ± 0.02.
On to Ribonuclease HI (Escherichia coli), for which the pKa with Asp10 was 6.1; with Asp108 it was 3.2; with Asp134, 4.1; with Asp70 it was 2.6; with Asp94, 3.2; with Glu119, 4.1. Also, the pKa is 3.6 with Glu129; 4.3 in the data set with Glu131; 4.3 in the data set with Glu135; 4.2 with Glu147; 4.4 with Glu154; 3.6 in the data set with Glu32. The pKa was 4.4 in the data set with Glu48; 3.2 in the data set with Glu57; 4.5 with Glu6 [1]; 3.9 with Glu61; 4.4 with Glu64.
For the substance “Thioredoxin (human, reduced) (Homo sapiens)”, the pKa in the data set with Asp16 was 4.1 ± 0.10; with Asp20, 3.8 ± 0.05; with Asp26 it was 9.9 ± 0.10; with Asp64 it was 3.2 ± 0.06; with Glu103, 4.4 ± 0.07; in the data set with Glu13 it was 4.4 ± 0.07. Further, the pKa was 4.1 ± 0.10 with Glu47; 3.1 ± 0.10 with Glu56; 4.8 ± 0.08 with Glu6 [2]; 4.9 ± 0.07 in the data set with Glu68; 4.6 ± 0.08 in the data set with Glu70; 3.7 ± 0.08 with Glu88. Moreover, the pKa was 4.1 ± 0.02 in the data set with Glu95 and 3.9 ± 0.02 in the data set with Glu98.
Take “Turkey ovomucoid third domain (OMTKY3) (Meleagris gallopavo)”: the pKa is 2.56 ± 0.03 with Asp27; 2.95 ± 0.03 with Asp7; 9.86 ± 0.03 in the data set with Lys13; 11.12 ± 0.02 with Lys29; 10.13 ± 0.05 with Lys34; 11.10 ± 0.06 in the data set with Lys55.
